This data set deals with SpyTag-CsgA.

PTDH-SpyCatcher: the “PTDH activity (OD 340 nm, absorbance of formed NADH)” value is reported as “the thin cotton cloth exhibited almost exclusive specific-enzyme binding”. Turning to amylase-SpyCatcher, the amylase activity result is “amylase activity was observed throughout the experiment”.

Source of the values: patent US20190315799.
